The target of test [1] is T1, Flag-tagged Pds5b (wild type) from cells co-expressing Nek2aΔMR (human, UniProt Q9NTI5 1-1447, phosphoserine at 1177, 1182 and 1209 (by Nek2a)).
T1 construct: Pds5b, human; insert by PCR on human cDNA; their state in this preparation was not measured; source: Hek293T co-expressing eGFP-Nek2aΔMR, taxol-arrested
T1 sequence (looked up): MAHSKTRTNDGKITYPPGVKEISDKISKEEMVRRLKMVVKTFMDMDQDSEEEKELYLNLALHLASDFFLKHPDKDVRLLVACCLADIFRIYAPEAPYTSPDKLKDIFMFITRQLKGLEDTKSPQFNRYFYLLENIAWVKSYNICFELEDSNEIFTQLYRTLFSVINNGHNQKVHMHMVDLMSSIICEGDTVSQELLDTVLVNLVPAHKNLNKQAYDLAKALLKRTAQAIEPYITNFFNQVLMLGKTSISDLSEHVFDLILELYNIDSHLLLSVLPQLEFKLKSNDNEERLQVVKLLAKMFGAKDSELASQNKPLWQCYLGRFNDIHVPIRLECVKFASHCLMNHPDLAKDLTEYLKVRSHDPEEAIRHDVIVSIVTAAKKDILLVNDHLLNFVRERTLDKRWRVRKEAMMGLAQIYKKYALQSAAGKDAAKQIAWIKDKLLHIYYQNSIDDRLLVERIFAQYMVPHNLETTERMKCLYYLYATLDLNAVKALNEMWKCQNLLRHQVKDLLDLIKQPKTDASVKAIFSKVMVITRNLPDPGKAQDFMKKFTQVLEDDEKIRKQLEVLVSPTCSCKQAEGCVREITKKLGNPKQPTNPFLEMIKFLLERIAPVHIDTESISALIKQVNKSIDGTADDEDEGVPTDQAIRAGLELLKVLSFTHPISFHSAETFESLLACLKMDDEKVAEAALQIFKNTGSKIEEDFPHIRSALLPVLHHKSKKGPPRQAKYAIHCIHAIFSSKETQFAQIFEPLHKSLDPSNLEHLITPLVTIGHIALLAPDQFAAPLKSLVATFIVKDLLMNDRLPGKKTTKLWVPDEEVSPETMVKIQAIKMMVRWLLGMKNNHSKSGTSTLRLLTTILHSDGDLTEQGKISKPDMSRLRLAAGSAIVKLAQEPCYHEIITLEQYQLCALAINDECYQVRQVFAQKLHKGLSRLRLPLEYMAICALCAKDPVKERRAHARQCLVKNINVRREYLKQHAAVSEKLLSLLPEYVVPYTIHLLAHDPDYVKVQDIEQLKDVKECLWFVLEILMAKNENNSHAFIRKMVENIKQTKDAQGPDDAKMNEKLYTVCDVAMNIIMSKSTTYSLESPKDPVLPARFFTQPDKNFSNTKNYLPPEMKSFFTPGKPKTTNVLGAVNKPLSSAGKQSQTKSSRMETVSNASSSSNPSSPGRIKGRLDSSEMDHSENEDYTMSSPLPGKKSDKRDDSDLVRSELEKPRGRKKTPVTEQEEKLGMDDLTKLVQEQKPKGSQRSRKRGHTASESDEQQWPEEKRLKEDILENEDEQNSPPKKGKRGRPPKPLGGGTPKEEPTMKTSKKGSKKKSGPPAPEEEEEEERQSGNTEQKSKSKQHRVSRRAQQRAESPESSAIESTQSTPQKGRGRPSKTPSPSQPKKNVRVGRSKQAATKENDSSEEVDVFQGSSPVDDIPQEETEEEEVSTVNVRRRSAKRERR
The test can be described thus: pull-down; Flag-Pds5a or -b affinity-purified on anti-Flag beads from chromatin-free lysates of taxol-arrested Hek293T cells (expressed alone or with Nek2aΔMR and/or Δ86-cyclin A2); beads incubated with a mixture of recombinant Wapl (2 µl) and sororin (0.3 µg) in 15 µl cleavage buffer with kinase inhibitors, 20 min at 37 °C; bound and unbound fractions by immunoblotting. The note with it: both partners purified. For orientation: A western blot detects proteins with antibodies after separation by electrophoresis.

Test [2] has as its target T2, Flag-tagged Pds5b (wild type) from cells co-expressing Δ86-cyclin A2 (human, UniProt Q9NTI5 1-1447, phosphoserine at 1161 and 1166 (by Cdk1/2-cyclin A2)).
T2 construct: Pds5b, human; insert by PCR on human cDNA; their state in this preparation was not measured; source: Hek293T co-expressing eGFP-Δ86-cyclin A2, taxol-arrested
T2 sequence (looked up): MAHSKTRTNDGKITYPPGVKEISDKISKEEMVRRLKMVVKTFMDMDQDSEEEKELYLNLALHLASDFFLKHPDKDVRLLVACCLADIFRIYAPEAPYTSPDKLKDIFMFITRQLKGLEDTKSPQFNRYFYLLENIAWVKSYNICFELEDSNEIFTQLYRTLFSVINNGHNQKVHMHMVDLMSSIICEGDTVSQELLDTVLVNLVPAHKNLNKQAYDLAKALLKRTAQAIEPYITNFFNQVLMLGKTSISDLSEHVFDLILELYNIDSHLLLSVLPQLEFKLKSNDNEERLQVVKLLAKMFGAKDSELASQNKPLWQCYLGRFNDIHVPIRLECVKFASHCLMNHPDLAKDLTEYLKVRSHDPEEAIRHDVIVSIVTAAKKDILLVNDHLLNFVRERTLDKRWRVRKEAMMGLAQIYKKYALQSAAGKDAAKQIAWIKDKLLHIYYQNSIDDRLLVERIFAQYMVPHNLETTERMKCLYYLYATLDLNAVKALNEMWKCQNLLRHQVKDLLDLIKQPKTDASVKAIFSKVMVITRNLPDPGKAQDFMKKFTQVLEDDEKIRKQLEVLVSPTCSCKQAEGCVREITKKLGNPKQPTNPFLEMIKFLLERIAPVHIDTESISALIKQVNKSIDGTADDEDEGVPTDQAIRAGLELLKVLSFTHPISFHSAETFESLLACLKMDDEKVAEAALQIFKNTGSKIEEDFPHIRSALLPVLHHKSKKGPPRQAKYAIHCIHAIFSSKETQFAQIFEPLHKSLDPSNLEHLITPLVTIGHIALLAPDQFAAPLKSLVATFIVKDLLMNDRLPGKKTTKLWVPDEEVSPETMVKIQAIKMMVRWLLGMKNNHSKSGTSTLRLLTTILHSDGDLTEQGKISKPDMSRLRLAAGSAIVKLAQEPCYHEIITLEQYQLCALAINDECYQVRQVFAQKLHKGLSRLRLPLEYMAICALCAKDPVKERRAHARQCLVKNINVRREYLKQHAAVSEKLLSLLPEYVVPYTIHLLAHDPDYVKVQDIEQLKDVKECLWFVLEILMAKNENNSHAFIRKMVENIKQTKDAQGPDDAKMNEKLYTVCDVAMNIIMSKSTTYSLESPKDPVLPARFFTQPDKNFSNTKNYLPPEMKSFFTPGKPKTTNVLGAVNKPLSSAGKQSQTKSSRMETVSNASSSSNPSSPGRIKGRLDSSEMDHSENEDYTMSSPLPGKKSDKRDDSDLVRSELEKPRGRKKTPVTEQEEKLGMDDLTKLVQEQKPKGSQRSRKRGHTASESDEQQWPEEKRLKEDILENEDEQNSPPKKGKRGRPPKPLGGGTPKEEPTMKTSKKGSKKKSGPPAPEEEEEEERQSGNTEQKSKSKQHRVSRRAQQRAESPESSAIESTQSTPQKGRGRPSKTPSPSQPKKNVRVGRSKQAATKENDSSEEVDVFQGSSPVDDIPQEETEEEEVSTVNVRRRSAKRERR
Described as above. The note with it: both partners purified.

The text below walks through data of publication PMC11535040, “Requirement of Nek2a and cyclin A2 for Wapl-dependent removal of cohesin from prophase chromatin” (The EMBO Journal, 2024).

B1: recombinant human Wapl (natural protein, UniProt Q7Z5K2 1-1190, looked up)
chain: MTSRFGKTYSRKGGNGSSKFDEVFSNKRTTLSTKWGETTFMAKLGQKRPNFKPDIQEIPKKPKVEEESTGDPFGFDSDDESLPVSSKNLAQVKCSSYSESSEAAQLEEVTSVLEANSKISHVVVEDTVVSDKCFPLEDTLLGKEKSTNRIVEDDASISSCNKLITSDKVENFHEEHEKNSHHIHKNADDSTKKPNAETTVASEIKETNDTWNSQFGKRPESPSEISPIKGSVRTGLFEWDNDFEDIRSEDCILSLDSDPLLEMKDDDFKNRLENLNEAIEEDIVQSVLRPTNCRTYCRANKTKSSQGASNFDKLMDGTSQALAKANSESSKDGLNQAKKGGVSCGTSFRGTVGRTRDYTVLHPSCLSVCNVTIQDTMERSMDEFTASTPADLGEAGRLRKKADIATSKTTTRFRPSNTKSKKDVKLEFFGFEDHETGGDEGGSGSSNYKIKYFGFDDLSESEDDEDDDCQVERKTSKKRTKTAPSPSLQPPPESNDNSQDSQSGTNNAENLDFTEDLPGVPESVKKPINKQGDKSKENTRKIFSGPKRSPTKAVYNARHWNHPDSEELPGPPVVKPQSVTVRLSSKEPNQKDDGVFKAPAPPSKVIKTVTIPTQPYQDIVTALKCRREDKELYTVVQHVKHFNDVVEFGENQEFTDDIEYLLSGLKSTQPLNTRCLSVISLATKCAMPSFRMHLRAHGMVAMVFKTLDDSQHHQNLSLCTAALMYILSRDRLNMDLDRASLDLMIRLLELEQDASSAKLLNEKDMNKIKEKIRRLCETVHNKHLDLENITTGHLAMETLLSLTSKRAGDWFKEELRLLGGLDHIVDKVKECVDHLSRDEDEEKLVASLWGAERCLRVLESVTVHNPENQSYLIAYKDSQLIVSSAKALQHCEELIQQYNRAEDSICLADSKPLPHQNVTNHVGKAVEDCMRAIIGVLLNLTNDNEWGSTKTGEQDGLIGTALNCVLQVPKYLPQEQRFDIRVLGLGLLINLVEYSARNRHCLVNMETSCSFDSSICSGEGDDSLRIGGQVHAVQALVQLFLERERAAQLAESKTDELIKDAPTTQHDKSGEWQETSGEIQWVSTEKTDGTEEKHKKEEEDEELDLNKALQHAGKHMEDCIVASYTALLLGCLCQESPINVTTVREYLPEGDFSIMTEMLKKFLSFMNLTCAVGTTGQKSISRVIEYLEHC
notes: Wapl, human; insert by PCR on human cDNA; Isolated from mitotically arrested cells; also called GFP-SUMOstar-Wapl; source: Hek293T, transiently transfected, taxol-arrested; not shown: GFP, N-terminal, cleaved; SUMOstar, N-terminal, cleaved
Regarding B1, the binding result in test [1] and in test [2] was “binds” in each case.
